This note sets out measurements from PMC9758175.

Assay [1] concerns the target WspR-His (Lysobacter enzymogenes OH11).
The target is the same in assay [2]. Kind of assay: MST; as the WspR-RpfG MST assay, with 10 μM DSF added.
Assay [3] shares this target. Kind of assay: MST; as the WspR-RpfG MST assay, with 10 μM c-di-GMP added.
The target is the same in assay [4]. Kind of assay: MST; 100 nM WspR-His labelled with RED-Tris-NTA, titrated with MBP-RpfG or its variant; 50 mM Tris pH 7.5, 150 mM NaCl, 10 mM MgCl2, 0.05% Tween 20; 25 °C; Monolith NT.115.
Assay [5] addresses WspR-His~P (Lysobacter enzymogenes OH11). The assay is described as above.

WspR-His (Lysobacter enzymogenes OH11), sequence (main, as listed by the source): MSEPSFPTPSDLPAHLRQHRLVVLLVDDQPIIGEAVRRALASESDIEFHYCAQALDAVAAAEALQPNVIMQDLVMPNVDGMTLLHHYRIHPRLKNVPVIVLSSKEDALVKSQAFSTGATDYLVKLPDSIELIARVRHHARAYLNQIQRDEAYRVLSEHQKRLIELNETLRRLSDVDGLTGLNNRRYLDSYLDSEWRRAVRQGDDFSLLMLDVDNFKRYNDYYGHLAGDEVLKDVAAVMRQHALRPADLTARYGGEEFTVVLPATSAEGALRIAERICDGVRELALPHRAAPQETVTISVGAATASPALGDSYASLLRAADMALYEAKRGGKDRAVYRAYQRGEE
WspR-His~P (Lysobacter enzymogenes OH11), sequence (main, as listed by the source): as above

Usually Kd stands for the constant that tells how readily two partners part at equilibrium. MBP-RpfG (enzyme) had a reduction of c-di-GMP production by WspR-His from GTP (HPLC peak area) on addition of MBP-RpfG in assay [1] of 82%. For the same substance, the Kd in assay [2] stood at 250 nM; in assay [3] it was 320 nM; in assay [4], 150 nM; in assay [5], 930 nM.
MBP-RpfG^H190A (enzyme) had a reduction of c-di-GMP production by WspR-His from GTP (HPLC peak area) on addition of MBP-RpfG^H190A in assay [1] of 34%. Moreover, the dissociation constant (Kd) in assay [4] was 200 nM; in assay [5], 560 nM.
As for phosphorylated RpfG (RpfG~P) (enzyme), in assay [4], the dissociation constant Kd came to 240 nM.
